Test results published in patent US9675675B2, “Microneedle device having a peptide therapeutic agent and an amino acid, methods of making and using the same” (3M INNOVATIVE PROPERTIES COMPANY, priority 2011, dated 2017).

How the values were obtained:
[1] = Storage stability of insulin in dried coating on microneedle arrays, HPLC content; type: physicochemical; conditions: 5 mg/mL insulin in 0.1 N acetic acid, pH 3.0-3.5; for Percent of Initial Insulin Content in the Coating, Initial: freshly coated reference standard, about 4° C.; for Percent of Initial Insulin Content in the Coating, Day 1 / Percent of Initial Insulin Content in the Coating, Day 3 / Percent of Initial Insulin Content in the Coating, Day 7 / Percent of Initial Insulin Content in the Coating, Day 14: stored 40° C., 96% RH
Method: (§1) The protein or polypeptide content in the formulation coated on the microneedle arrays was determined using an Agilent 1100 HPLC system (Agilent Technologies, Wilmington, Del.) equipped with a binary pump, well-plated thermostated autosampler, thermostated column compartment, and a diode array UV detector. A Zorbax 300SB-C8 column (Agilent Technologies, Wilmington, Del.) having a 5 μm particle size and 2.1×150 mm inner diameter was used for the separations. The column was maintained at 50° C. The mobile phase consisted of two eluents. Eluent A was 0.1% TFA (trifluoroacetic acid) in water and eluent B was 0.1% TFA in acetonitrile (Spectrum Chemical, New Brunswick, N.J.). A linear gradient from 80/20 to 50/50 (A/B) was applied over 30 minutes. The flow rate was 0.4 mL/minute and the UV detection wavelength was set at 214 nm. The total run time was 34 minutes and the sample injection volume was 15 μL.
The pH of the sample formulation was 3.0-3.5. […] The pH of the control formulation was 3.0-3.5. Microneedle arrays were coated with either the sample or the control formulation. The coating was applied by dropwise addition of 50 μL of the formulation to the portion of the array defined by the octagon shaped pattern of microneedles. The flood coated arrays (both sample and control formulation coated) were dried in an oven at 35° C. for about 15 hours.
After drying, the coated arrays were placed in a storage chamber that was maintained at 40° C. and 96% relative humidity (RH). […] At the designated time point, an array was taken from the chamber and washed with 0.1 N acetic acid (1 mL) to remove the coating from the array. […] The arrays used as reference standards were stored in a refrigerator at about 4° C. and analyzed within one day of being prepared.
[…] The pH of the sample formulation was 3.0-3.5.

[2] = Storage stability of lysozyme in dried coating on microneedle arrays, HPLC content; type: physicochemical; conditions: 10 mg/mL lysozyme in PBS; for Percent of Initial Lysozyme Content in the Coating, Initial: freshly coated reference standard, about 4° C.; for Percent of Initial Lysozyme Content in the Coating, Day 1 / Percent of Initial Lysozyme Content in the Coating, Day 3 / Percent of Initial Lysozyme Content in the Coating, Day 7 / Percent of Initial Lysozyme Content in the Coating, Day 14: stored 40° C., 96% RH
Method: as §1
A sample formulation containing 10 mg/mL of lysozyme and 12 mg/mL of L-histidine monohydrochloride (His-HCl) in PBS was prepared. The pH of the sample formulation was 5.5-6.0. A control formulation was also prepared containing 10 mg/mL of lysozyme in PBS. […] The pH of the control formulation was 6.5. Microneedle arrays were coated with either the sample or the control formulation. The coating was applied by dropwise addition of 50 μL of the formulation to the portion of the array defined by the octagon shaped pattern of microneedles. The flood coated arrays (both sample and control formulation coated) were dried in an oven at 35° C. for about 15 hours.
After drying, the coated arrays were placed in a storage chamber that was maintained at 40° C. and 96% relative humidity (RH). The lysozyme content of the coated arrays was determined following storage in the chamber for 1, 3, 7, and 14 days. At the designated time point, an array was taken from the chamber and washed with PBS (2 mL) to remove the coating from the array. An aliquot of the resulting wash solution was analyzed for lysozyme content using the HPLC method described above. Reference standards were prepared by measuring the lysozyme content of freshly coated arrays (both sample and control formulation coated). The arrays used as reference standards were stored in a refrigerator at about 4° C. and analyzed within one day of being prepared. The percentage of undegraded lysozyme remaining in the coating at each time point was determined by measuring the peak area for lysozyme in the selected coating and dividing it by the peak area measured for lysozyme in the corresponding reference standard.
The same procedure as described in Example 7 was used with the exception that the sample formulation contained 12 mg/mL of L-arginine hydrochloride, instead of L-histidine monohydrochloride. The pH of the sample formulation was 6.5.

[3] = Amino acid: L-Arginine (12 mg/mL Arg-HCl)
[4] = Amino acid: L-Histidine (12 mg/mL His-HCl)
[5] = Amino acid: L-Arginine (12 mg/mL Arg-HCl), pH 6.5
[6] = Amino acid: L-Histidine (12 mg/mL His-HCl), pH 5.5-6.0
[7] = Amino acid: None (control), pH 6.5

In the case of Insulin, the “Percent of Initial Insulin Content in the Coating, Initial” value [1, 3] is reported as 100%, the “Percent of Initial Insulin Content in the Coating, Day 1” value [1, 3] is reported as 75.4% and the “Percent of Initial Insulin Content in the Coating, Day 3” value [1, 3] is reported as 45.9%. The “Percent of Initial Insulin Content in the Coating, Day 7” value [1, 3] was 27.1%, the “Percent of Initial Insulin Content in the Coating, Initial” value [1, 4] was 100% and the “Percent of Initial Insulin Content in the Coating, Day 1” value [1, 4] was 95.3%. The “Percent of Initial Insulin Content in the Coating, Day 3” value [1, 4] was 93.5%, the “Percent of Initial Insulin Content in the Coating, Day 7” value [1, 4] was 79.2% and the “Percent of Initial Insulin Content in the Coating, Day 14” value [1, 4] was 34.9%. For the same substance, the “Percent of Initial Insulin Content in the Coating, Initial” value ([1]; Amino acid: None (control)) was 100%, the “Percent of Initial Insulin Content in the Coating, Day 3” value ([1]; Amino acid: None (control)) was 0% and the “Percent of Initial Insulin Content in the Coating, Day 7” value ([1]; Amino acid: None (control)) was 0%. For the same substance, the “Percent of Initial Insulin Content in the Coating, Day 14” value ([1]; Amino acid: None (control)) was 0%.
In the case of lysozyme, the “Percent of Initial Lysozyme Content in the Coating, Initial” value [2, 5] is reported as 100%, the “Percent of Initial Lysozyme Content in the Coating, Day 1” value [2, 5] is reported as 52.6% and the “Percent of Initial Lysozyme Content in the Coating, Day 3” value [2, 5] is reported as 33.1%. The “Percent of Initial Lysozyme Content in the Coating, Day 7” value [2, 5] was 22.4%, the “Percent of Initial Lysozyme Content in the Coating, Day 14” value [2, 5] was 23.0% and the “Percent of Initial Lysozyme Content in the Coating, Initial” value [2, 6] was 100%. The “Percent of Initial Lysozyme Content in the Coating, Day 1” value [2, 6] was 100.0%, the “Percent of Initial Lysozyme Content in the Coating, Day 3” value [2, 6] was 80.6% and the “Percent of Initial Lysozyme Content in the Coating, Day 7” value [2, 6] was 60.1%. The “Percent of Initial Lysozyme Content in the Coating, Day 14” value [2, 6] was 53.3%, the “Percent of Initial Lysozyme Content in the Coating, Initial” value [2, 7] was 100% and the “Percent of Initial Lysozyme Content in the Coating, Day 1” value [2, 7] was 26.9%. The “Percent of Initial Lysozyme Content in the Coating, Day 3” value [2, 7] was 4.4%, the “Percent of Initial Lysozyme Content in the Coating, Day 7” value [2, 7] was 1.9% and the “Percent of Initial Lysozyme Content in the Coating, Day 14” value [2, 7] was 1.9%.
